Assay results reported in patent US20230093169A1, “COMBINATIONS OF ANTIBODY CONSTRUCTS AND INHIBITORS OF CYTOKINE RELEASE SYNDROME AND USES THEREOF” (AMGEN RESEARCH (MUNCH) GMBH, priority 2020, published 2023).

Assays:
[1] = tested on: VCAM-1 expression on CD31+HUVEC; test: Blinatumumab VCAM assay: VCAM-1 on CD31+ HUVEC in co-cultures with T cells and NALM-6; type: cell-based, human; details: isolated T cells and NALM-6
Protocol: FIG. 7. VCAM-1 Expression on HUVEC in AMG 103 Co-culture Assays: VCAM-1 expression by flow cytometry. […] expression levels are expressed as Median Fluorescence Intensity (MFI). VCAM-1 expressing HUVEC are expressed as percentage of CD31+HUVEC. Error bars indicate the standard error of the mean of duplicate measurements. Two PBMC donors were used in this experiment.
The effect of blinatumomab (AMG 103) on T cell activation and the induction of VCAM-1 on endothelial cells was analyzed in co-cultures of HUVEC, isolated T cells and CD19-expressing NALM-6 target cells. VCAM-1 expression on CD31+HUVEC was analyzed by flow cytometry.

[2] = tested on: MCP-1 release in HUVEC co-cultured with CD19-expressing NALM-6 cells and human PBMC; test: BiTE-induced MCP-1 release in co-culture of HUVEC, NALM-6 cells and human PBMC, with or without etanercept; type: cell-based; details: HUVEC + NALM-6 + human PBMC; after 2 and 5 hours
Text: FIG. 6. AMG 103-mediated MCP-1 Secretion: MCP-1 concentrations in cell culture supernatants were quantified by the BD Cytometric CBA human MCP-1 Flex Set. Error bars in both graphs indicate the standard error of the mean of duplicate measurements.
Human umbilical vein endothelial cells (HUVEC) were co-cultured with CD19-expressing NALM-6 cells and human PBMC and increasing concentrations of BiTE® antibody construct blinatumomab (AMG 103) against CD19 in the absence or presence of etanercept. MCP-1 concentrations were determined with the BD Cytometric CBA human MCP-1 Flex set system (BD, Germany after 2 and 5 hours, respectively according to the manufacturer's instructions and are shown in FIG. 6.

[3] = cited from earlier work
TNF-α = biological target: T1, TNF-α (Homo sapiens, UniProt P01375); test: Etanercept prophylaxis for PSMA-targeting BiTE-related CRS in humans; type: in vivo
T1 construct: endogenous in cells; host or cells: human subjects (clinical cohort), in vivo
T1 sequence (P01375 77-233 limits assumed): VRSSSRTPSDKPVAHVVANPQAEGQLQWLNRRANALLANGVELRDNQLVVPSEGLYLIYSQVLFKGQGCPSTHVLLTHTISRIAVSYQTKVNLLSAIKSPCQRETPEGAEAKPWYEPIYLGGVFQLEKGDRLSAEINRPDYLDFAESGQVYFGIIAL
Protocol: Etanercept premedication occurred within two days before BiTE administration to assess whether prophylaxis with the TNF-α inhibitor decreases the frequency and severity of CRS without compromising the efficacy of the BiTE. In an initial cohort of 6 to 8 subjects, the PSMA-targeting BiTE is administered. In addition to dexamethasone prophylaxis, subjects in the cohort received prophylaxis with etanercept (50 mg subcutaneously [SC]) two days prior to each dose of PSMA-targeting BiTE in the first administration cycle.
Subject incidence of safety events, including dose-limiting toxicities (DLTs), serious adverse events (SAEs), and adverse events leading to treatment discontinuation or dose reduction, will be reviewed when at least 3 DLT-evaluable subjects complete the DLT window. Subjects receiving three individual increasing doses of PSMA-targeting BiTE with etanercept prophylaxis experienced 1 DLT/SAE (grade 3 (G3) thrombocytopenia), 1 SAE (Grade 3 (G3) Afib), 0 dose reductions, 1 discontinuation (tolerability), CRS events in cycle 1: 4 grade 2 (G2), no grade 3/4 (G3/4). […] In the latter group 1 DLT/SAE (G3 Hypoacusis), 2 SAE (grade 3 (G3) Pruritus, grade 2/3 (G2/G3) CRS), 2 dose reductions, 2 discontinuations (disease progression), and CRS events in cycle 1: 4 grade 1 (G1), 7 grade 2 (G2), 4 grade 3 (G3) were observed. In the etanercept prophylaxis group the PSMA-targeting BiTE was administered at the same dosages and frequency as in the group without etanercept prophylaxis.

[4] = subjects on PSMA-targeting BiTE with prophylaxis

## AMG 103: BiTE® antibody construct against CD19
[1]; co-cultures of HUVEC, flow cytometry
  VCAM-1 expression on CD31+HUVEC: up-regulated

## etanercept
[2]
  effect on BiTE molecule (AMG 103) induced MCP-1 release: Blocked
[3]; mean±SD
  half-life: 102 ± 30 h
[3]; subcutaneous, slow absorption
  time of maximum concentration [tmax], mean±SD: 69 ± 34 h
TNF-α; PSMA-targeting BiTE at same dosages and frequency
  CRS safety profile compared with no premedication or premedication with tocilizumab: improves CRS safety profile
TNF-α; [4]
  CRS events in cycle 1, grade 2 (G2): 4
  CRS events in cycle 1, grade 3/4 (G3/4): no grade 3/4
  SAE: 1
  discontinuations: 1
  dose reductions: 0
TNF-α; subjects on PSMA-targeting BiTE with prophylaxis (etanercept 50 mg SC two days prior; tocilizumab 8 mg/kg two hours before first dose)
  DLT/SAE: 1
[1]
  sensitivity of AMG 103-induced VCAM-1 up-regulation to TNF blockade: sensitive

## tocilizumab: monoclonal antibody that competes with the binding of IL-6 to its receptor, IL-6R
TNF-α; in vivo
  CRS events in cycle 1, grade 1 (G1): 4
  CRS events in cycle 1, grade 2 (G2): 7
  CRS events in cycle 1, grade 3 (G3): 4
  SAE: 2
  discontinuations: 2
  dose reductions: 2
